Results on 2 molecules are retold here after article doi:10.1101/2023.04.17.536592 (bioRxiv, 2023).

The labels stand for the following.
B1: T. brucei histone H2B (natural protein, Trypanosoma brucei brucei)
chain: ATPKSTPAKTRKEAKKTRRQRKRTWNVYVSRSLRSINSQMSMTSRTMKIVNSFVNDLFERIAAEAATIVRVNRKRTLGARELQTAVRLVLPADLAKHAMAEGTKAVSHASS
notes: also called Tb H2B

The target in one assay is T1, T. brucei histone H2A (Trypanosoma brucei brucei, UniProt Q57YA3 2-134).
T1 construct: also called Tb H2A
T1 sequence: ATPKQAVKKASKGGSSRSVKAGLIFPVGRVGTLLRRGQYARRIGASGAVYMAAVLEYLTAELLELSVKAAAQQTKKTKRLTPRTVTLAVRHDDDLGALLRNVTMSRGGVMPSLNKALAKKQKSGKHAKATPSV
In words: cryo-EM structure. The note with it: both partners purified.

The assay “T. brucei histone H2B” addresses B1. As to the kind of experiment: cryo-EM structure. Particulars: both partners purified.

Take B1: the binding result with T. brucei histone H2A is on record as “binds”.

B2: T. brucei histone H4 (natural protein)
chain: not shown
notes: also called Tb H4
For the molecule B2, the binding result in the assay with T. brucei histone H2B is recorded as “binds”.
